# Data taken from IntAct's records for PubMed 20010843.
# B1: Cadherin-5 (Homo sapiens), P33151 (parent)
# chain: MQRLMMLLATSGACLGLLAVAAVAAAGANPAQRDTHSLLPTHRRQKRDWIWNQMHIDEEKNTSLPHHVGKIKSSVSRKNAKYLLKGEYVGKVFRVDAETGDVFAIERLDRENISEYHLTAVIVDKDTGENLETPSSFTIKVHDVNDNWPVFTHRLFNASVPESSAVGTSVISVTAVDADDPTVGDHASVMYQILKGKEYFAIDNSGRIITITKSLDREKQARYEIVVEARDAQGLRGDSGTATVLVTLQDINDNFPFFTQTKYTFVVPEDTRVGTSVGSLFVEDPDEPQNRMTKYSILRGDYQDAFTIETNPAHNEGIIKPMKPLDYEYIQQYSFIVEATDPTIDLRYMSPPAGNRAQVIINITDVDEPPIFQQPFYHFQLKENQKKPLIGTVLAMDPDAARHSIGYSIRRTSDKGQFFRVTKKGDIYNEKELDREVYPWYNLTVEAKELDSTGTPTGKESIVQVHIEVLDENDNAPEFAKPYQPKVCENAVHGQLVLQISAIDKDITPRNVKFKFILNTENNFTLTDNHDNTANITVKYGQFDREHTKVHFLPVVISDNGMPSRTGTSTLTVAVCKCNEQGEFTFCEDMAAQVGVSIQAVVAILLCILTITVITLLIFLRRRLRKQARAHGKSVPEIHEQLVTYDEEGGGEMDTTSYDVSVLNSVRRGGAKPPRPALDARPSLYAQVQKPPRHAPGAHGGPGEMAAMIEVKKDEADHDGDGPPYDTLHIYGYEGSESIAESLSSLGTDSSDSDVDYDFLNDWGPRFKMLAELYGSDPREELLY
# partner: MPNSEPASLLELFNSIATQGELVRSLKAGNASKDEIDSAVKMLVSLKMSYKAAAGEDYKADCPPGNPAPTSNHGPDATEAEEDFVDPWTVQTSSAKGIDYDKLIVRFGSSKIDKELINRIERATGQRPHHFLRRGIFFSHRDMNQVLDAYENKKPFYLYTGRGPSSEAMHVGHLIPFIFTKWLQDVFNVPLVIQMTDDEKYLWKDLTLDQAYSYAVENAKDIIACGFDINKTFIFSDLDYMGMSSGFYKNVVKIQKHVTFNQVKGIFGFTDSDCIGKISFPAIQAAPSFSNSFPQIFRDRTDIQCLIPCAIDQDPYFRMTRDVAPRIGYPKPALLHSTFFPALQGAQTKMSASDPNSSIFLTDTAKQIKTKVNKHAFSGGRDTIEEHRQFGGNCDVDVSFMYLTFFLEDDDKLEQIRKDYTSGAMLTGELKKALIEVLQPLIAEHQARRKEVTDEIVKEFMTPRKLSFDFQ
# B2: Tryptophan--tRNA ligase, cytoplasmic (Homo sapiens), P23381 (parent)
# chain: B1 partner
# partner: B1 chain
# Variants of: B1
# Settings: with sywc_human WARS1, P23381
row,effect of a mutation on the interaction,Variant
1,disrupting interaction,W49A;W51A
2,disrupting interaction,W51A
3,disrupting interaction,W49A

# Variants of: B2
# Settings: with cadh5_human CDH5, P33151
row,effect of a mutation on the interaction,Variant
1,disrupting interaction,MPNSEPASLLELFNSIATQGELVRSLKAGNASKDEIDSAVKMLVSLKMSYKAAAGEDYKADCPPGNPAPTSNHGPDATEAEEDFVDPWTVQTSSAKGIDYDKLIVRFGSSKIDKELINRIERATGQRPHHFLRRGIFFSHRDMNQVLDAYENKKPFYLYTGRGPSSEAMHVMHLIPFIFTKWLQDVFNVPLVIQMTDDEKYLWKDLTLDQAYSYAVENAKDIIACGFDINKTFIFSDLDYMGMSSGFYKNVVKIQKHVTFNQVKGIFGFTDSDCIGKISFPAIQAAPSFSNSFPQIFRDRTDIQCLIPCAIDQDPYFRMTRDVAPRIGYPKPALLHSTFFPALQGAQTKMSASDPNSSIFLTDTAKQIKTKVNKHAFSGGRDTIEEHRQFGGNCDVDVSFMYLTFFLEDDDKLEQIRKDYTSGAMLTGELKKALIEVLQPLIAEHQARRKEVTDEIVKEFMTPRKLSFDFQ [G172M]
2,disrupting interaction,MPNSEPASLLELFNSIATQGELVRSLKAGNASKDEIDSAVKMLVSLKMSYKAAAGEDYKADCPPGNPAPTSNHGPDATEAEEDFVDPWTVQTSSAKGIDYDKLIVRFGSSKIDKELINRIERATGQRPHHFLRRGIFFSHRDMNQVLDAYENKKPFYLATGRGPSSEAMHVGHLIPFIFTKWLQDVFNVPLVIAMTDDEKYLWKDLTLDQAYSYAVENAKDIIACGFDINKTFIFSDLDYMGMSSGFYKNVVKIQKHVTFNQVKGIFGFTDSDCIGKISFPAIQAAPSFSNSFPQIFRDRTDIQCLIPCAIDQDPYFRMTRDVAPRIGYPKPALLHSTFFPALQGAQTKMSASDPNSSIFLTDTAKQIKTKVNKHAFSGGRDTIEEHRQFGGNCDVDVSFMYLTFFLEDDDKLEQIRKDYTSGAMLTGELKKALIEVLQPLIAEHQARRKEVTDEIVKEFMTPRKLSFDFQ [Y159A;Q194A]
3,disrupting interaction,MPNSEPASLLELFNSIATQGELVRSLKAGNASKDEIDSAVKMLVSLKMSYKAAAGEDYKADCPPGNPAPTSNHGPDATEAEEDFVDPWTVQTSSAKGIDYDKLIVRFGSSKIDKELINRIERATGQRPHHFLRRGIFFSHRDMNQVLDAYENKKPFYLYTGRGPSSEAMHVGHLIPFIFTKWLQDVFNVPLVIQMTDDEKYLWKDLTLDQAYSYAVENAKDIIACGFDINKTFIFSDLDYMGMSSGFYKNVVKIQKHVTFNQVKGIFGFTDSDCIGKISFPAIQAAPSFSNSFPQIFRDRTDIQCLIPCWIDQDPYFRMTRDVAPRIGYPKPALLHSTFFPALQGAQTKMSASDPNSSIFLTDTAKQIKTKVNKHAFSGGRDTIEEHRQFGGNCDVDVSFMYLTFFLEDDDKLEQIRKDYTSGAMLTGELKKALIEVLQPLIAEHQARRKEVTDEIVKEFMTPRKLSFDFQ [A310W]
4,disrupting interaction,MPNSEPASLLELFNSIATQGELVRSLKAGNASKDEIDSAVKMLVSLKMSYKAAAGEDYKADCPPGNPAPTSNHGPDATEAEEDFVDPWTVQTSSAKGIDYDKLIVRFGSSKIDKELINRIERATGQRPHHFLRRGIFFSHRDMNQVLDAYENKKPFYLYTWRGPSSEAMHVGHLIPFIFTKWLQDVFNVPLVIQMTDDEKYLWKDLTLDQAYSYAVENAKDIIACGFDINKTFIFSDLDYMGMSSGFYKNVVKIQKHVTFNQVKGIFGFTDSDCIGKISFPAIQAAPSFSNSFPQIFRDRTDIQCLIPCAIDQDPYFRMTRDVAPRIGYPKPALLHSTFFPALQGAQTKMSASDPNSSIFLTDTAKQIKTKVNKHAFSGGRDTIEEHRQFGGNCDVDVSFMYLTFFLEDDDKLEQIRKDYTSGAMLTGELKKALIEVLQPLIAEHQARRKEVTDEIVKEFMTPRKLSFDFQ [G161W]
